Positions count from the first letter of the chain named. Names may count otherwise.
B1: E298G: TP-DNAP1 variant (protein)
chain: MDYKDKALNDLRNVYADFDSLPLDFRQILIKDRATLLQKEDVEKKILERQEDAKKYAEYLKQSEIPERISLPNIKRHKGVSISFEETSEDMVLEPRPFIFDGLNIRCFRRETIFSLKNKILNMVKESSSFKNVSRQSVSFMYFKIFNKGKVIASTKSVNIYEDKIDERLEDLCNNFDDVLKKIIDVTYGYESLFVSETYSYVIFYAKSIYFPQPRCVNNWGNNIPNILTFDSFKLFTANKNNVSCIKQCSRFLWQKDFNTLEEMIEYKNGNICIVTPQLHINDVRDIKSFNDIRLYSGSPIKTFSVIDNTITYLFYFKEHLGVIFNITKSRHDRRVTKFSPLSKFSDVKNITVCFDIESYFDPEKESNQVNIPFICCASIIYNKVIGNIVDFEGRDCVAQMIEYVVDICGELNISSVELIAHNGGGYDFHYILSSMYNPAAIKNILIRNNSFISFNFAHDGVKFSVKDSYSFLLCSLANASKAFLNEETFKKTDFPHHDLKTADDLYKVYKEWSSVNTEINHVVEKEKLLITSEHIVNFTKNDKSKTLIEWSKDYCRNDVLVLSKVWLEFKNAVEDIFNCELVDQTMTLAGLSYKLFQANMPFDVELRHPNKEDYFNMREALIGGRCISVNGIYKDVLCLDVKSLYPASMAFYDQPYGSFKRVSSRPKDELGIYYVRVTPNRNNKSNFFPIRSHNKITYNNFEESTYIAWYTNVDIDIGLSEGHNIEYIPFDSYGNIGYSWSKKGKIFEKYIKDVLYKLKIKYEKQNNKVKRNVIKIIMNSLWGKFAQKWVNFEYFIKSEDDIDFESEEAYKIWDTDFMLIKKIKESTYSSKPIQNGVFTLSWARYHMKSIWDAGAKEGAECIYSDTDSIFVHKEHFKKNAKFMLNGLKVPIIGSEVGQLELECEFDKLLCAGKKQYMGFYTYFQDGKPCIKEKKRFKGIPSNYIIPELYAHLLSGADKEAKIQFLKFRREWGSVKGYIENKTVKAT
B2: E704N: TP-DNAP1 variant (protein)
chain: B1 chain with G298E, E704N
B3: E703H: TP-DNAP1 variant (protein)
chain: B1 chain with G298E, E703H
B4: K696S, E704V: TP-DNAP1 variant (protein)
chain: B1 chain with G298E, K696S, E704V
B5: E704G: TP-DNAP1 variant (protein)
chain: B1 chain with G298E, E704G
B6: S705L: TP-DNAP1 variant (protein)
chain: B1 chain with G298E, S705L
B7: E703R: TP-DNAP1 variant (protein)
chain: B1 chain with G298E, E703R
B8: E704I: TP-DNAP1 variant (protein)
chain: B1 chain with G298E, E704I
B9: K696M: TP-DNAP1 variant (protein)
chain: B1 chain with G298E, K696M
B10: T698A: TP-DNAP1 variant (protein)
chain: B1 chain with G298E, T698A
B11: S705F: TP-DNAP1 variant (protein)
chain: B1 chain with G298E, S705F
B12: E703W: TP-DNAP1 variant (protein)
chain: B1 chain with G298E, E703W
B13: K696G: TP-DNAP1 variant (protein)
chain: B1 chain with G298E, K696G
B14: T698M: TP-DNAP1 variant (protein)
chain: B1 chain with G298E, T698M
B15: E704K: TP-DNAP1 variant (protein)
chain: B1 chain with G298E, E704K
B16: E298H: TP-DNAP1 variant (protein)
chain: B1 chain with G298H
B17: E298G, S305F: TP-DNAP1 variant (protein)
chain: B1 chain with S305F
B18: N695S: TP-DNAP1 variant (protein)
chain: B1 chain with G298E, N695S
B19: T698L: TP-DNAP1 variant (protein)
chain: B1 chain with G298E, T698L
B20: T706R: TP-DNAP1 variant (protein)
chain: B1 chain with G298E, T706R
B21: E704M: TP-DNAP1 variant (protein)
chain: B1 chain with G298E, E704M
B22: T706Q: TP-DNAP1 variant (protein)
chain: B1 chain with G298E, T706Q
B23: K696C: TP-DNAP1 variant (protein)
chain: B1 chain with G298E, K696C
B24: E704D: TP-DNAP1 variant (protein)
chain: B1 chain with G298E, E704D
B25: K696Y: TP-DNAP1 variant (protein)
chain: B1 chain with G298E, K696Y
B26: K696T: TP-DNAP1 variant (protein)
chain: B1 chain with G298E, K696T
B27: S705R: TP-DNAP1 variant (protein)
chain: B1 chain with G298E, S705R

tested on: p1; assay: p1 copy number by p1-encoded mKate2 fluorescence; type: cell-based, S. cerevisiae; conditions: OR-Y24, measured in triplicate
Outline: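 Yeast OR-Y24 strains carrying TP-DNAP1 variants were grown to saturation from a 1:10,000 dilution, and p1-encoded mKate2 fluorescence was measured by flow cytometry (ex/em 561/620 nm). Values were converted to copy number via a linear calibration against qPCR of p1-encoded LEU2 versus genomic LEU3, or by plate-reader OD600-normalized fluorescence relative to w.t. TP-DNAP1.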

| Molecule | Mean fold-increase over w.t. (p1 copy number) |
| --- | --- |
| B1 | 2.64 fold |
| B2 | 1.85 fold |
| B3 | 1.53 fold |
| B4 | 1.86 fold |
| B5 | 1.75 fold |
| B6 | 1.98 fold |
| B7 | 1.84 fold |
| B8 | 1.35 fold |
| B9 | 1.71 fold |
| B10 | 2.02 fold |
| B11 | 1.76 fold |
| B12 | 1.72 fold |
| B13 | 2.11 fold |
| B14 | 1.75 fold |
| B15 | 1.8 fold |
| B16 | 2.57 fold |
| B17 | 2.06 fold |
| B18 | 1.82 fold |
| B19 | 2 fold |
| B20 | 2 fold |
| B21 | 2.02 fold |
| B22 | 2.92 fold |
| B23 | 1.87 fold |
| B24 | 1.89 fold |
| B25 | 1.49 fold |
| B26 | 2.12 fold |
| B27 | 1.84 fold |
